Results from publication PMC6522505.

Target: secCl (CG7589), Cys-loop ligand-gated ion channel subunit (Drosophila melanogaster)

Question: Which shift in reversal potential in low chloride buffer, Xenopus oocytes co-expressing secCl and CG6927 does the source give for “CG6927, Cys-loop ligand-gated ion channel subunit (natural protein)” here?
Answer: 53 mV
